From patent US20250122266A1, “SMART SINGLE-DOMAIN INTRABODIES WITH PRECISION SWITCHES FOR BIOMEDICAL APPLICATIONS” (THE TEXAS A&M UNIVERSITY SYSTEM, priority 2020, published 2025)

Assays:
[1] = target: Mito-mCh (AKAP1-mCh, mitochondria-anchored mCherry) (human) (UniProt Q92667); experiment: Mito-to-cytosol ratio of GFP-rapabody in HeLa cells against rapamycin dose; the concentration is that of rapamycin, not of a protein
[2] = target: ER anchored mCh (mCh fused with human Sac1 residues 521-587) (human) (UniProt Q9NTJ5); experiment: cytosol-to-ER translocation in HeLa cells under light
[3] = target: Mito-mCh (AKAP1-mCh, mitochondria-anchored mCherry) (human) (UniProt Q92667); experiment: cytosol-to-mitochondria translocation in HeLa cells under light
[4] = target: Mito-mCh (AKAP1-mCh, mitochondria-anchored mCherry) (human) (UniProt Q92667); experiment: mitochondria translocation assay in HeLa cells, 5 µM caffeine
[5] = target: Mito-mCh (AKAP1-mCh, mitochondria-anchored mCherry) (human) (UniProt Q92667); experiment: mitochondria translocation assay in HeLa cells, caffeine washed out
[6] = target: Mito-mCh (AKAP1-mCh, mitochondria-anchored mCherry) (human) (UniProt Q92667); experiment: Mito-to-cytosol ratio of GFP-caffebody in HeLa cells against caffeine dose; the concentration is that of caffeine, not of a protein
[7] = target: NE-tethered SH2 domain of Abl kinase (SH2 fused with mEmerald-lamin A) (UniProt P00519); experiment: NE/NP ratio of mCh signal in HeLa cells over light-dark cycles

B1: GFP-rapabody (anti-mCh nanobody LaM8 with UniRapR in the S3 loop) (VHH, not shown: large carriers)
chain: QLVESGGGLVQAGGSLRLSCAVSGRPFSEYNLGWFRQAPGKEREFVARIRSSGTTVYTDSVKGRFSASRDNATCVVHYTGMLEDGKKFDSSRDRNKPFKFMLGKQEVIRGWEEGVAQMSVGQRAKLTISPDYAYGATGHGSGSGSGVKDLLQAWDLYYHVFRRISGPPGPGSGLWHEMWHEGLEEASRLYFGERNVKGMFEVLEPLHAMMERGPQTLKETSFNQAYGRDLMEAQEWCRKYMKSGSSGGSGSGIIPPHATLVFDVELLKLEKNMGYLQLNSLEPEDTAVYYCAMSRVDTDSPAFYDYWGQGTQVTVSTPRS
[1]
  EC50 of rapamycin (dose of the small-molecule switch) for release from the antigen: 1600 nM

B2: GFP-2xsunbody (dimeric concatemer of sunbody) (VHH, not shown: large carriers)
chain: LATTLERIEKNFVITDPRLPDNPIIFASDSFLQLTEYSREEILGRNCRFLQGPETDRATVRKIRDAIDNQTEVTVQLINYTKSGKKFWNLFHLQPMRDQKGDVQYFIGVQLDGTEHVRDAAEREGVMLIKKTAENIDEAAKELKLMAQVQLVESGGGLVQAGGSLRLSCAVSGRPFSEYNLGWFRQAPGKEREFVARIRSSGTTVYTDSVKGRFSASRDNALERIEKNFVITDPRLPDNPIIFASDSFLQLTEYSREEILGRNCRFLQGPETDRATVRKIRDAIDNQTEVTVQLINYTKSGKKFWNLFHLQPMRDQKGDVQYFIGVQLDGTEHVRDAAEREGVMLIKKTAENIDEAAKNMGYLQLNSLEPEDTAVYYCAMSRVDTDSPAFYDYWGQGTQVTVSTPRSLATTLERIEKNFVITDPRLPDNPIIFASDSFLQLTEYSREEILGRNCRFLQGPETDRATVRKIRDAIDNQTEVTVQLINYTKSGKKFWNLFHLQPMRDQKGDVQYFIGVQLDGTEHVRDAAEREGVMLIKKTAENIDEAAKELKLMAQVQLVESGGGLVQAGGSLRLSCAVSGRPFSEYNLGWFRQAPGKEREFVARIRSSGTTVYTDSVKGRFSASRDNALERIEKNFVITDPRLPDNPIIFASDSFLQLTEYSREEILGRNCRFLQGPETDRATVRKIRDAIDNQTEVTVQLINYTKSGKKFWNLFHLQPMRDQKGDVQYFIGVQLDGTEHVRDAAEREGVMLIKKTAENIDEAAKNMGYLQLNSLEPEDTAVYYCAMSRVDTDSPAFYDYWGQGTQVTVSTPRS
[2]
  fold increase in the signal-to-background ratio against 1x sunbody: > 2 fold
[3]
  fold increase in the signal-to-background ratio against 1x sunbody: > 2 fold

B3: GFP-caffebody (anti-mCh nanobody LaM8 with 2xacVHH in the S3 loop) (VHH, not shown: large carriers)
chain: MAQVQLVESGGGLVQAGGSLRLSCAVSGRPFSEYNLGWFRQAPGKEREFVARIRSSGTTVYTDSVKGRFSASRDNAEVQLQASGGGLVQAGGSLRLSCTASGRTGTIYSMAWFRQAPGKEREFLATVGWSSGITYYMDSVKGRFTISRDNAKNSAYLQMNSLKPEDTAVYYCTATRAYSVGYDYWGQGTQVTVSHAAAGAPVPYPDPLEPREQKLISEEDLLEAVYSGGGGGGGSGGGGGGGSGGGGGGGSGEVQLQASGGGLVQAGGSLRLSCTASGRTGTIYSMAWFRQAPGKEREFLATVGWSSGITYYMDSVKGRFTISRDNAKNSAYLQMNSLKPEDTAVYYCTATRAYSVGYDYWGQGTQVTVSKNMGYLQLNSLEPEDTAVYYCAMSRVDTDSPAFYDYWGQGTQVTVSTPRS
[4]
  half-life of caffeine-induced translocation to the antigen (t½, on): 16.3 s
[5]
  deactivation half-life after withdrawal of caffeine: 23.6 s
[6]
  EC50 of caffeine (dose of the small-molecule switch) for binding to the antigen: 2300 nM

B4: mCh-moonbody (anti-SH2 moonbody, variant S5.1) (designed binder, not shown: large carriers)
chain: VSSVPTKLEVVDATPTSLKISWDAYYSSWQNVKYYRITYGETGGDSPVQEFTVPGYYSTATISGLKPGSGLATTLERIEKNFVITDPRLPDNPIIFASDSFLQLTEYSREEILGRNCRFLQGPETDRATVRKIRDAIDNQTEVTVQLINYTKSGKKFWNLFHLQPMRDQKGDVQYFIGVQLDGTEHVRDAAEREGVMLIKKTAENIDEAAKELGVDYTITVYAYDTFFPGYEPNSPISINYRT
[7]
  activation half-life (light-induced dissociation from the antigen): 7.8 s
  deactivation half-life (return to the antigen in the dark): 46.5 s
